B1: Pistol ribozyme (parent)
chain: GGGUCGUUGUUCCAUAAUCGCGUGGAUAUGGCACGCAAGUUUCUACCGGGCACCGUAAAUGUCCGACUGGAGCCGUUCGGGCGGCUAUAAACAGACCUCAGGCCCGAAGCGUGGCGGCACCUGCCGCCGGUGGUAAAAAAGAUCGGAAGAGCACACGUCU

Variants of: B1
Assay: aptazyme ON/OFF ratio, guanine; higher = stronger switching; co-transcriptional cleavage with and without guanine

First: GGGUCGAAAUGGUAUAAUCGCGUGGAUAUGGCACGCAAGUUUCUACCGGGCACCGUAAAUGUCCGACUGGAGCCGUUCGGGCGGCUAUAAACAGACCUCAGGCCCGAAGCGUGGCGGCACCUGCCGCCGGUGGUAAAAAAGAUCGGAAGAGCACACGUCU
Second: GGGUCGAAAUGGGAUAAUCGCGUGGAUAUGGCACGCAAGUUUCUACCGGGCACCGUAAAUGUCCGACUGGAGCCGUUCGGGCGGCUAUAAACAGACCUCAGGCCCGAAGCGUGGCGGCACCUGCCGCCGGUGGUAAAAAAGAUCGGAAGAGCACACGUCU
The “aptazyme ON/OFF ratio” value of the first is lower: 1.32 for the first, 1.33 for the second.

Going from GGGUCGAAAUGGAAUAAUCGCGUGGAUAUGGCACGCAAGUUUCUACCGGGCACCGUAAAUGUCCGACUGGAGCCGUUCGGGCGGCUAUAAACAGACCUCAGGCCCGAAGCGUGGCGGCACCUGCCGCCGGUGGUAAAAAAGAUCGGAAGAGCACACGUCU to GGGUCGAAAUGCCAUAAUCGCGUGGAUAUGGCACGCAAGUUUCUACCGGGCACCGUAAAUGUCCGACUGGAGCCGUUCGGGCGGCUAUAAACAGACCUCAGGCCCGAAGCGUGGCGGCACCUGCCGCCGGUGGUAAAAAAGAUCGGAAGAGCACACGUCU, the “aptazyme ON/OFF ratio” value rises from 1.16 to 1.29.

Going from GGGUCGAAAUGAUAUAAUCGCGUGGAUAUGGCACGCAAGUUUCUACCGGGCACCGUAAAUGUCCGACUGGAGCCGUUCGGGCGGCUAUAAACAGACCUCAGGCCCGAAGCGUGGCGGCACCUGCCGCCGGUGGUAAAAAAGAUCGGAAGAGCACACGUCU to GGGUCGAAAUGAAAUAAUCGCGUGGAUAUGGCACGCAAGUUUCUACCGGGCACCGUAAAUGUCCGACUGGAGCCGUUCGGGCGGCUAUAAACAGACCUCAGGCCCGAAGCGUGGCGGCACCUGCCGCCGGUGGUAAAAAAGAUCGGAAGAGCACACGUCU, the “aptazyme ON/OFF ratio” value falls from 1.09 to 1.08.

Going from GGGUCGAAAUGAGAUAAUCGCGUGGAUAUGGCACGCAAGUUUCUACCGGGCACCGUAAAUGUCCGACUGGAGCCGUUCGGGCGGCUAUAAACAGACCUCAGGCCCGAAGCGUGGCGGCACCUGCCGCCGGUGGUAAAAAAGAUCGGAAGAGCACACGUCU to GGGUCGAAAUGCGAUAAUCGCGUGGAUAUGGCACGCAAGUUUCUACCGGGCACCGUAAAUGUCCGACUGGAGCCGUUCGGGCGGCUAUAAACAGACCUCAGGCCCGAAGCGUGGCGGCACCUGCCGCCGGUGGUAAAAAAGAUCGGAAGAGCACACGUCU, the “aptazyme ON/OFF ratio” value rises from 1.11 to 1.14.

Going from GGGUCGAAAUGCAAUAAUCGCGUGGAUAUGGCACGCAAGUUUCUACCGGGCACCGUAAAUGUCCGACUGGAGCCGUUCGGGCGGCUAUAAACAGACCUCAGGCCCGAAGCGUGGCGGCACCUGCCGCCGGUGGUAAAAAAGAUCGGAAGAGCACACGUCU to GGGUCGAAAUGCUAUAAUCGCGUGGAUAUGGCACGCAAGUUUCUACCGGGCACCGUAAAUGUCCGACUGGAGCCGUUCGGGCGGCUAUAAACAGACCUCAGGCCCGAAGCGUGGCGGCACCUGCCGCCGGUGGUAAAAAAGAUCGGAAGAGCACACGUCU, the “aptazyme ON/OFF ratio” value rises from 1.15 to 1.29.

Compared with GGGUCGAAAUGUGAUAAUCGCGUGGAUAUGGCACGCAAGUUUCUACCGGGCACCGUAAAUGUCCGACUGGAGCCGUUCGGGCGGCUAUAAACAGACCUCAGGCCCGAAGCGUGGCGGCACCUGCCGCCGGUGGUAAAAAAGAUCGGAAGAGCACACGUCU, GGGUCGAAAUGUUAUAAUCGCGUGGAUAUGGCACGCAAGUUUCUACCGGGCACCGUAAAUGUCCGACUGGAGCCGUUCGGGCGGCUAUAAACAGACCUCAGGCCCGAAGCGUGGCGGCACCUGCCGCCGGUGGUAAAAAAGAUCGGAAGAGCACACGUCU is higher in “aptazyme ON/OFF ratio” value: 1.18 for the first, 1.26 for the second.

Going from GGGUCGAAAUGUAAUAAUCGCGUGGAUAUGGCACGCAAGUUUCUACCGGGCACCGUAAAUGUCCGACUGGAGCCGUUCGGGCGGCUAUAAACAGACCUCAGGCCCGAAGCGUGGCGGCACCUGCCGCCGGUGGUAAAAAAGAUCGGAAGAGCACACGUCU to GGGUCGAAAUCCUAUAAUCGCGUGGAUAUGGCACGCAAGUUUCUACCGGGCACCGUAAAUGUCCGACUGGAGCCGUUCGGGCGGCUAUAAACAGACCUCAGGCCCGAAGCGUGGCGGCACCUGCCGCCGGUGGUAAAAAAGAUCGGAAGAGCACACGUCU, the “aptazyme ON/OFF ratio” value falls from 1.16 to 1.1.

Going from GGGUCGAAAUCCGAUAAUCGCGUGGAUAUGGCACGCAAGUUUCUACCGGGCACCGUAAAUGUCCGACUGGAGCCGUUCGGGCGGCUAUAAACAGACCUCAGGCCCGAAGCGUGGCGGCACCUGCCGCCGGUGGUAAAAAAGAUCGGAAGAGCACACGUCU to GGGUCGAAAUGGCAUAAUCGCGUGGAUAUGGCACGCAAGUUUCUACCGGGCACCGUAAAUGUCCGACUGGAGCCGUUCGGGCGGCUAUAAACAGACCUCAGGCCCGAAGCGUGGCGGCACCUGCCGCCGGUGGUAAAAAAGAUCGGAAGAGCACACGUCU, the “aptazyme ON/OFF ratio” value rises from 1.12 to 1.3.

Going from GGGUCGAAAUGUCAUAAUCGCGUGGAUAUGGCACGCAAGUUUCUACCGGGCACCGUAAAUGUCCGACUGGAGCCGUUCGGGCGGCUAUAAACAGACCUCAGGCCCGAAGCGUGGCGGCACCUGCCGCCGGUGGUAAAAAAGAUCGGAAGAGCACACGUCU to GGGUCGAAAUGACAUAAUCGCGUGGAUAUGGCACGCAAGUUUCUACCGGGCACCGUAAAUGUCCGACUGGAGCCGUUCGGGCGGCUAUAAACAGACCUCAGGCCCGAAGCGUGGCGGCACCUGCCGCCGGUGGUAAAAAAGAUCGGAAGAGCACACGUCU, the “aptazyme ON/OFF ratio” value falls from 1.69 to 1.11.

— the RNAGym collection of RNA variant scans (doi:10.1021/acssynbio.7b00057)
